Data reported in patent US11219221B2 (FarmHannong Co., Ltd., priority 2017, dated 2022).

Tested on: CyPPO16
Assay: Herbicide tolerance test of CyPPO16 wild type and variants in PPO-deficient E. coli BT3(ΔPPO)
Type: cell-based, Spirulina subsalsa
Conditions: BT3(ΔPPO) transformants, two or more amino acid mutations, dark; for Herbicide tolerance, tiafenacil: 37° C., 16 to 20 hours, relative to wild type at highest concentration (50, 200 μM); for Herbicide tolerance, flumioxazin: relative to wild type at highest concentration (25, 50 μM); for Herbicide tolerance, sulfentrazone: relative to wild type at highest concentration (2000, 4000 μM)
Protocol: The mutated CyPPO gene obtained from the Example 2 was transformed to BT3 (ΔPPO) strain which is deficient of PPO activity and cultured in LB media with PPO-inhibiting herbicide, thereby examining whether growth of transformed BT3 was not inhibited.
BT3 competent cells were transformed with the pET303-CyPPO16 and pET303-CyPPO17 plasmids and those with a mutation(s) constructed in Example 2 respectively, and were cultured in LB agar media containing carbenicillin (Gold Biotechnology, Co., Ltd.).
Single colony of E. coli transformed with each CyPPO gene was cultured in 3 ml of LB broth containing carbenicillin overnight, and then was subcultured until absorbance (0D600) reached 0.5 to 1. Then, it was diluted with LB broth to OD600=0.5. Again, the diluted solution was serially diluted 4 times by a factor of one tenth.
The LB agar media (LB 25 g/l, Bacto agar 15 g/l) containing carbenicillin (100 μg/ml) and 0 to 4,000 μM of various herbicides dissolved in DMSO was prepared. Next, 10 μl of each diluted solution was dropped on the plate and cultured at 37° C. under light (Tables 7 and 9, FIGS. 2 to 6, and 18 to 22) or dark (Tables 8 and 10, FIGS. 7 to 17, and 23 to 33) for 16 to 20 hours. Then, extent of tolerance was evaluated.
The extent of herbicide tolerance of the mutated genes was evaluated by comparing that of mutated genes with that of wild type. The relative tolerance was represented with “+” as a factor of 10 times. Evaluation result was listed in Tables 7 to10 and FIGS. 2 to 33:
In Tables 7 to 10, tolerance level was presented as of tolerance of wild type and of variants equivalent to that of wild type, and was done as ‘+’ per each 10 fold resistance until ‘+++++’ as maximal resistance. (Tolerance level was evaluated by relative growth level of variants to that of wild type in the media containing highest concentration of herbicide; ‘+’=1-9 fold higher tolerance, ‘++’=10-99 fold higher tolerance, ‘+++’=100-999 fold higher tolerance, ‘++++’=1,000-9,999 fold higher tolerance, ‘+++++’=more than 10,000 fold higher tolerance)
The concentrations of herbicides were written above the photographs of tolerance test. A dilution series (0D600=0.5, 0.05, 0.005, 0.0005, 0.00005) was made and spotted on LB agar plates supplemented with herbicides.

| Molecule | Herbicide tolerance, tiafenacil | Herbicide tolerance, flumioxazin | Herbicide tolerance, sulfentrazone |
| --- | --- | --- | --- |
| A162L + V305M + F360M (protein, Synthetic (Protoporphyrinogen IX oxidase (CyPPO16) of Spirulina subsalsa)) MLDSLIVGAGISGLSAAHTLQKQQTQFLVTESQGRVGGNITTNRQGDYLWEEGPNSFAPTEDLLRLAVEVGLKEDLVFADRRLPRFVYWNQQLHPVPMSPPAALKTQLLSEAGKWRAALGALGFVGGLVGREEETVRQFFTRHLGTEVTERLVAPFVSGVYLGDVDQLSAQAAFRRVFEFAQLGGGLAAGGILARRQAPPKAPPDPSLPETKTGQLGSFREGLEMLPRAIASQLGDRLKLQWRLTHLEITPQQTYLAHFNTPDGPQQIATRTLILTTPAPITADLLKPLTPALHGVLKEIYYPPMACVVLAYPRAASARPLEGFGHLIPRNQGIRTLGTIWSSCLFPGRTPEGEHLLTNMIGGATDPGIAQLDPEEIAQAVHQDLCKILIRPEFTPKILAVRLWKQAIPQYTLGHLQRLATLEQELSKFPGLHILANYTDGVALGDCVKRGVAVAQKIRSRE | +++++ (‘+++++’=more than 10,000 fold higher tolerance) | +++++ (‘+++++’=more than 10,000 fold higher tolerance) | ++++ (‘++++’=1,000-9,999 fold higher tolerance) |
| V305M + L327T + F360M (protein, Synthetic (Protoporphyrinogen IX oxidase (CyPPO16) of Spirulina subsalsa)) MLDSLIVGAGISGLSAAHTLQKQQTQFLVTESQGRVGGNITTNRQGDYLWEEGPNSFAPTEDLLRLAVEVGLKEDLVFADRRLPRFVYWNQQLHPVPMSPPAALKTQLLSEAGKWRAALGALGFVGGLVGREEETVRQFFTRHLGTEVTERLVAPFVSGVYAGDVDQLSAQAAFRRVFEFAQLGGGLAAGGILARRQAPPKAPPDPSLPETKTGQLGSFREGLEMLPRAIASQLGDRLKLQWRLTHLEITPQQTYLAHFNTPDGPQQIATRTLILTTPAPITADLLKPLTPALHGVLKEIYYPPMACVVLAYPRAASARPLEGFGHTIPRNQGIRTLGTIWSSCLFPGRTPEGEHLLTNMIGGATDPGIAQLDPEEIAQAVHQDLCKILIRPEFTPKILAVRLWKQAIPQYTLGHLQRLATLEQELSKFPGLHILANYTDGVALGDCVKRGVAVAQKIRSRE | +++++ (‘+++++’=more than 10,000 fold higher tolerance) | +++++ (‘+++++’=more than 10,000 fold higher tolerance) | ++++ (‘++++’=1,000-9,999 fold higher tolerance) |
| V160C + A162C + V305M + L327T + F360M (protein, Synthetic (Protoporphyrinogen IX oxidase (CyPPO16) of Spirulina subsalsa)) MLDSLIVGAGISGLSAAHTLQKQQTQFLVTESQGRVGGNITTNRQGDYLWEEGPNSFAPTEDLLRLAVEVGLKEDLVFADRRLPRFVYWNQQLHPVPMSPPAALKTQLLSEAGKWRAALGALGFVGGLVGREEETVRQFFTRHLGTEVTERLVAPFVSGCYCGDVDQLSAQAAFRRVFEFAQLGGGLAAGGILARRQAPPKAPPDPSLPETKTGQLGSFREGLEMLPRAIASQLGDRLKLQWRLTHLEITPQQTYLAHFNTPDGPQQIATRTLILTTPAPITADLLKPLTPALHGVLKEIYYPPMACVVLAYPRAASARPLEGFGHTIPRNQGIRTLGTIWSSCLFPGRTPEGEHLLTNMIGGATDPGIAQLDPEEIAQAVHQDLCKILIRPEFTPKILAVRLWKQAIPQYTLGHLQRLATLEQELSKFPGLHILANYTDGVALGDCVKRGVAVAQKIRSRE | +++++ (‘+++++’=more than 10,000 fold higher tolerance) | +++++ (‘+++++’=more than 10,000 fold higher tolerance) | +++++ (‘+++++’=more than 10,000 fold higher tolerance) |
| A162C + V305M + L327T + F360M (protein, Synthetic (Protoporphyrinogen IX oxidase (CyPPO16) of Spirulina subsalsa)) MLDSLIVGAGISGLSAAHTLQKQQTQFLVTESQGRVGGNITTNRQGDYLWEEGPNSFAPTEDLLRLAVEVGLKEDLVFADRRLPRFVYWNQQLHPVPMSPPAALKTQLLSEAGKWRAALGALGFVGGLVGREEETVRQFFTRHLGTEVTERLVAPFVSGVYCGDVDQLSAQAAFRRVFEFAQLGGGLAAGGILARRQAPPKAPPDPSLPETKTGQLGSFREGLEMLPRAIASQLGDRLKLQWRLTHLEITPQQTYLAHFNTPDGPQQIATRTLILTTPAPITADLLKPLTPALHGVLKEIYYPPMACVVLAYPRAASARPLEGFGHTIPRNQGIRTLGTIWSSCLFPGRTPEGEHLLTNMIGGATDPGIAQLDPEEIAQAVHQDLCKILIRPEFTPKILAVRLWKQAIPQYTLGHLQRLATLEQELSKFPGLHILANYTDGVALGDCVKRGVAVAQKIRSRE | +++++ (‘+++++’=more than 10,000 fold higher tolerance) | +++++ (‘+++++’=more than 10,000 fold higher tolerance) | ++++ (‘++++’=1,000-9,999 fold higher tolerance) |
| R85A + V160C + A162L + V305M + F360M (protein, Synthetic (Protoporphyrinogen IX oxidase (CyPPO16) of Spirulina subsalsa)) MLDSLIVGAGISGLSAAHTLQKQQTQFLVTESQGRVGGNITTNRQGDYLWEEGPNSFAPTEDLLRLAVEVGLKEDLVFADRRLPAFVYWNQQLHPVPMSPPAALKTQLLSEAGKWRAALGALGFVGGLVGREEETVRQFFTRHLGTEVTERLVAPFVSGCYLGDVDQLSAQAAFRRVFEFAQLGGGLAAGGILARRQAPPKAPPDPSLPETKTGQLGSFREGLEMLPRAIASQLGDRLKLQWRLTHLEITPQQTYLAHFNTPDGPQQIATRTLILTTPAPITADLLKPLTPALHGVLKEIYYPPMACVVLAYPRAASARPLEGFGHLIPRNQGIRTLGTIWSSCLFPGRTPEGEHLLTNMIGGATDPGIAQLDPEEIAQAVHQDLCKILIRPEFTPKILAVRLWKQAIPQYTLGHLQRLATLEQELSKFPGLHILANYTDGVALGDCVKRGVAVAQKIRSRE | +++++ (‘+++++’=more than 10,000 fold higher tolerance) | +++++ (‘+++++’=more than 10,000 fold higher tolerance) | +++++ (‘+++++’=more than 10,000 fold higher tolerance) |
